Experimental data reported in the DeepSol protein solubility set.

test: soluble on expression in E. coli; label from the status in PepcDB or PDB records

Sequence	soluble on expression in E. coli
ASASTPHALLLISIDGLRADMLDRGITPNLSHLAREGVRARWMAPSYPSLTFPNHYTLVTGLRPDHHGIVHNSMRDPTLGGFWLSKSEAVGDARWWGGEPVWVGVENTGQHAATWSWPGSEAAIKGVRPSQWRHYQKGVRLDTRVDAVRGWLATDGAQRNRLVTLYFEHVDEAGHDHGPESRQYADAVRAVDAAIGRLLAGMQRDGTRARTNIIVVSDHGMAEVAPGHAISVEDIAPPQIATAITDGQVIGFEPLPGQQAAAEASVLGAHDHYDCWRKAELPARWQYGSHPRIPSLVCQMHEGWDALFPDKLAKRAQRGTRGSHGYDPALPSMRAVFLAQGPDLAQGKTLPGFDNVDVYALMSRLLGIPAAPNDGNPATLLPALRMPPAPDAR	soluble
MSPQTRPDAMSVVQERQVLRVGTLINPTSYYFDHDREQGFEYDLAKRFADRLGVELEMVPRFDVNDLFTMLRRGEVDIVAAGLDRTSTRAQLFRFSPPYDIISQKVVFKQGSRQRPRDLQQITDGEIVVVEGSSHHEFLKSLGDSIPTLKWRATRDHDAVELLQMVISGEVDYTITDSTALDIQRRFHPDLSVAFTVKHDQDIAWALPQGKDDSLFAAVIEYFGEIRSSGRLAHIKEQHFGHVKQFNYVTTSLFIEAVEQVLPGYIETFKEHSGSLDWRLLAAISYQESLWNPRAVSPTGVRGMMMLTLPTAKAMGVKSRLNAEQSIRGGARYLERMLNRVPARIPQPDRTWFAIAAYNIGFGHLEDARIITERQGGNPDRWVDVKKRLPLLRQKQFYRHTRYGFARGDEPVTYVGNIRRFYDTLKYLDEQGRLLEHHHHHH	soluble
HMVHITLDPDTANPWLILSEDRRQVRLGDTQQSIPGNEERFDSYPMVLGAQHFHSGKHYWEVDVTGKEAWDLGVCRDSVRRKGHFLLSSKSGFWTIWLWNKQKYEAGTYPQTPLHLQVPPCQVGIFLDYEAGMVSFYNITDHGSLIYSFSECAFTGPLRPFFSPGFNDGGKNTAPLTLCPL	soluble
MGSDKIHHHHHHMITQINIENFKCFSKKNMPVGALTMLTGFNAAGKSTALQALLLISQMVSGRHGDVSAALNGELVRMGTPGDVLRSDGSKEIKIGIETVEQKIQWTLVPSINLNNSLDLKDIHWASPNGVGDLTNISCNTSFNGLTPNEAPSDLSNLANEISDLIFISAVRMGTQDVYPSPTEPSPIRANVGMRGDYAPWWYEQHLDYEIDQKRVHSSEKALTLRRQLNAWLDQLFPGAEANAQKLPNTDLIQLLFRNSKTDVWRKPANIGYGLTYAFPILVAGLLARPGQLLIIDSPEAHLHPLGQSNMGKFLAKIAASGVQVLVETHSDHVLNGARLAVKSRVIDSRDVGILFFNRPPQKDGDPEHIIAPSIDKEGNLSDWPLGFFDQAENDLAVLADWG	not soluble
MAEKSFKYIILGGGVSAGYAAKEFANQGVQPGELAVISKEAVAPYERPALSKGYLFPEGAARLPGFHCCVGSGGEKLLPESYKQKGIELILSTEIVKADLSAKSLVSATGDVFKYQTLIIATGSTVLRLTDFGVKGADSKNILYLREIDDADKLVEAIKAKKGGKAVVVGGGYIGLELSAVLRINNLDVTMVFPEPWCMPRLFTADIAAFYETYYTNKGVKIIKGTVASGFTAQPNGEVKEVQLKDGRTLEADIVIVGVGAKPLTSLFKGQVEEDKGGIKTDAFFKTSVPDVYAVGDVATFPLKMYGDVRRVEHVDHSRKSAEQAVKAIKAAEGGAAVEEYDYLPFFYSRSFDLSWQFYGDNVGDSVLFGDSNPSNPKPRFGAYWVQGGKVVGAFMEGGSGDENKALAKVAKARPSAESLDELVKQGISFAAKI	soluble
MPFSISGRKGSEMMAKLDELKQKLTAKQIQAAYLLVENELMESNNEEKRTQDEMANELGINRTTLWEWRTKNQDFIAFKSEVADSFLAEKREQVYSKLMQLILGPQPSVKAMQLYMQRFGLLTDKKVIEGDLGNATRTNAEIEEQLQKLKKLTGE	soluble
LESALIEVNGKQQLRYEFLNDMLTQQNFQTNPIYAILHESIYCQDFASNWSAHRVRQTRPEFNYEPDQPFYFTGEMVFPWMFDQYVNLKPLKDAAEILAAKEDWAALYDQTQLAQNKVPVSCAVYADDMFVEMDISRETLALIPNSKAWITNEYEHNGLRADGERILDRLIAMGKQTAATLK	not soluble
MSLTPEHLPTEQYEAQLAEKVVRLQSMMAPFSDLVPEVFRSPVSHYRMRAEFRIWHDGDDLYHIIFDQQTKSRIRVDSFPAASELINQLMTAMIAGVRNNPVLRHKLFQIDYLTTLSNQAVVSLLYHKKLDDEWRQEAEALRDALRAQNLNVHLIGRATKTKIELDQDYIDERLPVAGKEMIYRQVENSFTQPNAAMNIQMLEWALDVTKGSKGDLLELYCGNGNFSLALARNFDRVLATEIAKPSVAAAQYNIAANHIDNVQIIRMAAEEFTQAMNGVREFNRLQGIDLKSYQCETIFVDPPRSGLDSETEKMVQAYPRILYISCNPETLCKNLETLSQTHKVERLALFDQFPYTHHMECGVLLTAKEGHHHHHH	soluble
MLQVRVKPGVEDRIRGFFPWVYRSEIASFSRKPKKGEIVVVRDVNGKFLGYGYINPEVNIAIRILSFDKNEPVTPELIRKRIKQAYEYRKRLYINSNAYRLVHSEGDLLPGLIVDVYGSYLAVEFTTYGMNQFREVILDTLVELLRPKGIYEKVNEIAKRVEGLDVEERVIYGEVPEEVIIWEHDLKYYINIPQGQKTGFFLDQRNARKFVRNLVEPGDRCLDVFCHTGGFALNMKRAGAGEVIGVDISELALKEAEKNARLNGFTDIKWVKANAFDYLRELDKKGEKFDVIIIDPPSFAKNRAAVPNALRGYKELCVRGLKIAKSGGYLAIFSCSFHITEQHLLDVLLQASYDVRRQVRVIAKTFQDLDHPWILQMPNTLYLKGVWVEVV	soluble
MSLSDRWDQTGLKTRVDGVLRSFLDEEAAHLAAVDAALAPVADQLRKAAGHGKRLRAAFCYWGWRAAGQPESDALVRAAASMELVHAAAVVHDDLIDDSRLRHGLPTAHVALEAVLARDGRPDARTAARSLAMLVGDQLMVLAGLLFTTSGLPAAYLARARDLWAVLARELVAGECLEILHTGGPPDTGTSLKVVRYKTAKYTVEHPLLIGGLLAGAAPALRDTYRAYALPLGEAFQLRDDLLGLFGDPERTGKASLDDLRAHRPTALLAETWKAADASQRQWLRRLLGRDDLDATHLHDVRRLMRELNAPQRVEQMIADRVERATRALDGAGTPPHARRALRELAQQATDRTHEGHHHHHH	soluble
MSLKLEAYRTLHCDAGWRRFSFLKLIAEDGTTGISEYNECYGSPGLTGVIEGVLEWIIGKNPFSHEKLSAELYARTRQAHGGIAQQAIAAVENALVDLKARSLGVPVYELLGGAVREELPLYWSHCGSYRLPRTAEMLGVPPITSLDDLVSLGKEVREKGFSALKTNIFLFEEQPHMHQPGFARSEGWPALNPERRIINSLKEQLAAFREGAGPELEILLDLNFNYRTEGFLTVCRALDDLGLGWFEMDLYDPAALARIRHALKTPVASCESLFGLRGFRPFFENQSMDVAIVDVPWNGIWQAMKIAGLAESFEVNVAPHNFYGHLSTLMSAHFCAAIPNFRIMEIDIDDVPWKDELVTKSPLIRDGILKIPEGIGWGTELNEEAIAAHPVKNTGDDRKYDRGMGEGHHHHHH	soluble
MATSAEVSQRVLAYLVEQLGVDVSFLRHNDRDRRATRLVAEWPPRLNIPDPDPLRLIYFADADPVFALCEHAKEPLVFRPEPATEDYQRLIEEARGVPVTSAAAVPLVSGEITTGLLGFIKFGDRKWHEAELNALMTIATLFAQVQARVAAEARLRYLADHDDLEHHHHHH	not soluble
MAHHHHHHMDSEETINLAVKYAKEAVVEDEKKNYKEALNLYIQSLQYFNFFCKYEKNSNIRDLILKKMEVYMTRAENLKEMLNKKDSIENKEKITNTEETKENMKKQIKQFILNKNNNIKWSDVCGLETAKEVLKEAIIFPLKFPKLFNSSTLPYKGILLYGPPGTGKTFLALACSNECNMNFFNVSSSDLVSKYQGESEKYIKCLFETAKEHSPAIIFIDEIDSLCGSRTDGENESTRRIKTEFLINMSGLTNYKNNIIVMGATNTPWSLDSGFRRRFEKRIYIPLPNIYARAKIFEKYINQNENNNISKEDIKQFATLTENYTGADIDILCRDAVYMPVKKCLLSKFFKQVKKNNKICYTPCSPGDSDPTKVEKNVMSLSENELSLPPLTVQDFKTAISNAKPSLSVDDIKKYEEWTHQYGMNGT	not soluble
